The record followed here is patent publication US20230365640A1.

The assay has as its target recombinant SARS-CoV-2 RBD (His-tagged SARS-CoV-2 RBD fusion protein) (SARS-CoV-2), P0DTC2. Conditions: remark: other sources report otherwise.

Values joined by “and” are separate entries in the source; they are usually repeats but may differ in a detail not shown here. Identical values can stand only once.

B1: DC-SIGN.Fc protein, Q9NNX6 59-404 (Fc fusion)
chain: QVSKVPSSISQEQSRQDAIYQNLTQLKAAVGELSEKSKLQEIYQELTQLKAAVGELPEKSKLQEIYQELTRLKAAVGELPEKSKLQEIYQELTWLKAAVGELPEKSKMQEIYQELTRLKAAVGELPEKSKQQEIYQELTRLKAAVGELPEKSKQQEIYQELTRLKAAVGELPEKSKQQEIYQELTQLKAAVERLCHPCPWEWTFFQGNCYFMSNSQRNWHDSITACKEVGAQLVVIKSAEEQNFLQLQSSRSNRFTWMGLSDLNQEGTWQWVDGSPLLPSFKQYWNRGEPNNVGEEDCAEFSGNGWNDDKCNLAKFWICKKSAASCSRDEEQFLSPAPATPNPPPA
Consider B1, for which the Kd is 18.7 µM and 16.1 µM; the koff was 0.000588 s⁻¹ and 0.000614 s⁻¹; the kon was 339 M⁻¹ s⁻¹.

One may read the Kd as a measure of binding affinity in units of concentration. By koff is commonly meant a measure of how fast the partners let go of each other. What is called kon is a measure of how fast the partners come together.
